These results are taken from the DeepSol protein solubility set.

The nature of the series: soluble on expression in E. coli; label from the status in PepcDB or PDB records.
Regarding “MRIHSPYPASWALAQRIGYLYSEGEIIYLADTPFERLLDIQRQVGQCQTMTSLSQADFEARLEAVFHQNTGESQQIAQDIDQSVDLLSLSEEMPANEDLLNEDSAAPVIRLINAILSEAIKETASDIHIETYEKTMSIRFRIDGVLRTILQPNKKLAALLISRIKVMARLDIAEKRIPQDGRISLRIGRRNIDVRVSTLPSIYGERAVLRLLDKNSLQLSLNNLGMTAADKQDLENLIQLPHGIILVTGPTGSGKSTTLYAILSALNTPGRNILTVEDPVEYELEGIGQTQVNTRVDMSFARGLRAILRQDPDVVMVGEIRDTETAQIAVQASLTGHLVLSTLHTNSASGAVTRLRDMGVESFLLSSSLAGIIAQRLVRRLCPQCRQFTPVSPQQAQMFKYHQLAVTTIGTPVGCPHCHQSGYQGRMAIHEMMVVTPELRAAIHENVDEQALERLVRQQHKALIKNGLQKVISGDTSWDEVMRVASATLESEA”, the “soluble on expression in E. coli” value is on record as “not soluble”.

On to “MGSDKIHHHHHHMSSAPIIYALSNNSLLIDAAHLDANNVLTIQKKIWALAAHCKNTAEFTDLVAGMNSLTLYLKSSAGLTKWLEALPLLWDELKSSTFTGKHHLIETLYEGEDLAYVARFHNLSIDEVISIHSKAQYHVLFLGFQPGFAYLHGLDTRLHTPRRAEPRIKVPKGAVAIGAAQTGIYPSDTPGGWHIIGHTNTTLFNSSHSQPCLMQPGDTLEFVALKNQGAGA”, for which the “soluble on expression in E. coli” value was “not soluble”.

On to “MNEVLRQEKKYLISLEDYYLLSKKFSQVMTLDSHSSDDGYTIRSLYFDSLEDVDWQEKEDGVEIRRKIRLRNYGSQSNFAKLEMKQKQGANQKKRSLKLSKTDAQALINGNNSVLLNYPDTFAAECYSRITTQLYQPKTVIEYQRKAFVAKENNIRITFDHHIIGTEASYDIFSEDLNQNYLLDPYLVILEVKYNGFLLSYIKELLDSVDRSELSASKYCLGRAVSKHYRFLEHHHHHH”, for which the “soluble on expression in E. coli” value is reported as “not soluble”.

As to “MGSDKIHHHHHHMETPRREAFRYHEVEQHVLRLIDSKQYPPGSRLPSLRAVARTLSASLATVCHAYEELERRGVVESRPRSGYYVRTLPSPLPVPHSAPAEEEEPREANRSRLIATVLEAVGNPQMAPFGVVSPDPSLLPGKKLGQILAELSRRNAEQCVAYETIAGNAEYRRQIAKRACEDGMPTRASEVVATTGAMEALYIALRVLTRPGDNVLIQSPTYYCFLQLLETLGLRAVEIPSDPKHGINPADLTKALSTFEVAACILSGNFNNPDGALTPDAAKREIVDILAARGIPLVDDDVSADLHFDAQRPASFKQYDKKGLVVFCSSFSKTIAPGYRAGWMLPGRFMEKALEVKATTNVCCATPTQAAVGEFMRLGLYDRQLKKLRSAFQTQICAMHECIGSAFPDGTRVTSPRGGGVLWVELPAAVNGVELFFKARARRVGIAPGSIFSTRDRFSNYIRLSCCGIWNPRMEEALRDLGRLARELT”, the “soluble on expression in E. coli” value is “not soluble”.

Regarding “MGSDKIHHHHHHMTSADPPTLPETSVDVPPTSAEGLLKLITNEYDGLPRQLKRIASYMSQQSDRIMVDRISDIARECEVHPSAIVRFSQRFGFSGFSEMQTLFREAYTHKTTPVQNYQQRIRSMIVNKSQKASAGDLARECVNATLSGLERLSADLDDEEFEKAVDLVVNADNIYVVGVRRSFAVADYLVYNLQHTNKRIHLISGLGGSYREQMRSVRANDLVIAISFTPYGKETQHCLRIAQHHQAKTLIITDSNLSPLAKRANSVLLVNEGSSFAFRSLSATLCLCQALFIAVAYRLELKVDEIHEQVGFDD”, the “soluble on expression in E. coli” value is “not soluble”.

As for “MAHHHHHHMPLPPVESGPAAMTRRNFLVEMNRLRVSQYMPTRKQLEEEDLRIATIRQEEKRAKHAEWAESRRKAADSYNAAGTNSGRPLPGSVSRSMRASGKGKPAENTYKLEKEEEAAKKREYNRLYEQEAKHQLAIRQATLKQMHDDEVRQMEALRKVNEEEDRKVAEAHAQAMEEERQYMERLKQSNKRELAARKAEQQAKEARDRQLQELVNENNRHRAEMDERRLKNVTRMLHLQNEQFHREAMMSKKASEAKHYEEVAATEERNRRLTKEEQEAAQRKKEQFRQDFEDCIARDKEFRRTHNYDEPMEVTRQRNELAAQSYRLVLEEERLQNAERRQQYRKDLMDQIMAKQTYRMTHLDEAGI”, the “soluble on expression in E. coli” value is listed as “not soluble”.

As for “MSLTEPDSKPKKGRAGRKKAEPVRPPEQFLELAELLDYVGQVIARGVPGGVWVRAEIASLTDRRHLYLDLVQAGEGGAGGVGEVAKCRATVWARERFALEAKFRGATSGATLSAGLKVLLFGTAEFHPQYGFSFNVLDISPEYTLGDAALRLEAMRAELVAEGSYGLNRLLPVPTDFARVAVIAPREAAGLGDFRREADPLEAAGLVEFHYLEATFQGREAGASLLRAVAAARELHQEKALDALFVIRGGGAVTDLAWLNDLELARALATFPAPVVTGLGHARDDTLPDEVACLRTDTPSKAAAYLVRTVVNAAAQAQEAARTIRAEAARVLVEAEAAAAWARDRALSSAVRRVDAAAAEVDALMRQALGLTPQRTLARGYALVRDAAGQPVTRAAGARAGEPLTLEWSDGSVEGHHHHHH”, the “soluble on expression in E. coli” value is “soluble”.

For “MQKRDGHIHTPFCPHGSNDTLRQYAEEALKKGFESITFTEHAPLPPSFTDPTPLKDSAMAQASLERYIHEISGLKKEYRGQLSIRTGLEVDYIAEFEDEITLFLDTYGPYLDDSILSVHFLRTDSSYLCLDYDEHTFKELISACGSIEAVYEQYYRSIYSSIVASLGVYKPKRVGHITLVQKFIKLFPYSMSEHIRGLVSLCLNAIEENGMELDFNTSGLRKTYAGGIYIEDWMLNEAKQKKIPLVFGSDAHQAGDVGYAYEAFLERCLEHHHHHH”, the “soluble on expression in E. coli” value was “not soluble”.

For “MAHHHHHHMRASERVPADDAATRVCPHSLIDSPSPSLMQAASAVATATATSSGIANLKQEASHEERLKVADHTAVKAWSLLNKMWYPDYHMASLAGWMGVPGGLCYHNGFYHVFYQYNPFSENWGPMHWGHMTSEDLVHWQHQPIALAPGELFDHDGCFSGSSVSYNNKLYIFYTGHTWRTESEKGSGNGTMGDGASFYQQQCVAVSSDGVNFEKLGAVVRPPPGYVHFRDPKVWQQDGRWWMVCGARDVTKDLGQLLLFTTEDLLKWDDTNWQVLGMTEDKNVFMWECPDMFRLGQMNVFLYSPQGMRKADYAYRNRFQSGYLLGSWNMSLVTAALSEREAGSPKGTASGSHAIGGPRWLASFDVTQRFREIDRGHDFYAPQTLLTKDGRRLIIGWMDMWESPMPTRGHGWSGCLTLPRELILDPFTGSVRMVPPKELLQLRCAQATILAQRIQESTDVLLVESCTAYELDIAFNMETSTAEKYGLWLGSGAELYVDAQSKRLVLNRHYPQHMLSGYRSCELPIGLLLQLHVFIDRSSIEVFVNNGEATFSSRVFPDEGDRALRVFSVNGTADMVGGTMWKLKATVRH”, the “soluble on expression in E. coli” value is reported as “not soluble”.

Take “MKTDVRWATFNIRYDNPQDSLNNWQYRKDRVCQFIKDHELDIVGMQEVLHNQFQDLRAGLPEYDGIGVGRDDGKTAGEYAPLFYRKDKYEVLDSNTFWLAENPDSVGMMGWDAVCVRIATWAKFKDKATGKIFMAVNTHFDHVGEEARRQSALLIIRKIKEIVGERPAVVTGDFNVTDASDAYETITTNEFVMKDAYKTAARVTGVDYTFHDFARIPAEDCEKIDFIFVTPQVLVKSCEIPAEVPEALLSDHNPQLADLELEHHHHHH”: the “soluble on expression in E. coli” value is on record as “soluble”.

As to “MSLSRRGRPKIPRFISEEPKFRIFKPHGVSLTEVDKVILSVDELEAIRLVDYLDYTQEEASKLMGISRRVLWSLLTEGRKKIADALINGKAIVIEGGEYKIRECGFCMRHRFGIKKHCRTWREELEGHHHHHH”, the “soluble on expression in E. coli” value is recorded as “not soluble”.

For the sequence “MTKASDAVKGIINSNNIYTLLLNTGLVNYTKLAREIKSQVDFLTGKKVKINTIVKALTNIEIKSKPKDILLILKQSILTLEYNYKEITTENRNKIPDDAILVIKESNGYSAIIKTTDGNSLVIAKILLPPGSCTTAGITLLITEFLEINGVSVRNIYRLSKEIWIIVDSESAGKAADALNRLLYKSNDRESSPVSLVD”, the “soluble on expression in E. coli” value is “not soluble”.

With “MVWTYTYDLDNQLISANKTGSSNSLAYDGAGRLRQTTLAGTITGLTYDGVDLVAEYNSGGTLLRRYVHGPGVDEPLVWYEGTTTTNKTWLYQDQLGSVIGTANSAGTSTAIHSYGPYGEPNIATGIRFRYTGQQFLGSLNLYYYKARFYSPALGRFLQTDPIGIADDLNLYAYVGNNPINFNDPSGLSAAAASMLLGKLGSWGRENAGTLTEIGIGFTPAGFYTDLYSAVAGRTPITGDSLSGWERVAILIPGVSEIRNAGRIGSSIQGVAESTIKQVNPTNLIPTQTRSEMSGSQIKRLEKDMRTNGFDQNKPIDAVRRTDGRLEIQDGHHRVEAAKRAGIDQIPVQIWEKLEHHHHHH”, the “soluble on expression in E. coli” value is “not soluble”.

Consider “MLKNLRIRKFEPEEEYVYFTYSIKNDKREKSKELIREYTTLLQKAIDYLWNLTKIQVRKKNGNYKITLPKKREVYKPLREELEKINHLASHYVDKAINDAFSILKSWRKRAIKGRASIEKPRVKKAYVRIKTTLRKVVGESVRITVRPHEYITFSWSKSWFSRRVRELELGEPIIKEEKVYLPFRYKLPWATPVDFLAIDSNLYTLDAYDGEKFVTISLKQLYSLKYSMEVKRAKVQSFASKHTKRGRELMRKYSHRERNRVLDFVHKFVNTLLDLYPMTFFAVEKLNKESMFKDANDSLSRKISRTVWGSIHRVLKYKAPLYGSFVKEVNPRFTSRSCPRCGFVSRKVGKTFECERCGFKLDRQLNASLNIYLKMCGFPHIREIARVWVGVIPLMGRRGMNGFPRDFGEAQGLRIDIEYHEIPLEHHHHHH”, for which the “soluble on expression in E. coli” value is recorded as “soluble”.

As to “MGSSHHHHHHSSGRENLYFQGMKVVFLICNPAAGGGRAGKIWNRVEDLLKKHGIDHKFAFTERPGHAMEISKKAFKEGYRRIAAFGGDGTVNEMVNGIFLNGYDLREVVFGWIPFGSGKDWARTIGVPLEIEEAIKMLKDGKEFVQDLGVGEYEKASGEIEKRAFVNVAGLFFDGFVTYRTNLLKRKNRVSYFSRIFSSIIEYDPPTARIQIDEKVWEKRVFSMNVGICKYNGGGMNQLPHAVPDDGLLAVTVINDIGKLRILANLHRVFNGKLLEHPGVEGYQAKKVVVEFQRDEPVEFDGESFWAKKIFFSIIPGVIRVLVKK”, the “soluble on expression in E. coli” value is “soluble”.

Turning to “MSLLHKDYHHFALTALEERKLAQLPPYSFLSLFRAEANHTAQVEDFLRQVRETLRCNPWFDSECMVLGPTPAPLAKRAGKFRWQLLLQTPNRTLMQKILQSARPALQQLPLASKVRWSIDIDPQDLSEGHHHHHH”, the “soluble on expression in E. coli” value is on record as “soluble”.

With “MGSDKIHHHHHHMTVIAVAGKGGTGKTLVSALLINFISEHTTSVLAVDADPDSNLPEALGVEKQVRKTLGEIRELFQVSRDEMGSMNKEQWLEGKIYAEAICECPRYDLLVMGRPEGEGCYCFANSLLRGVLKRLMRHYEYIIIDTEAGLEHFSRKTIDSADYIIIVTDMSRKGLATAKRIKELASELKLNFKKIFLIANRIASEDAEKTIREFAKEEGLELLAVLPYDSSVAEIDLRGEPVSKIDKNSEVYRKMKDVANLMLNLSAKAR”, the “soluble on expression in E. coli” value was “not soluble”.

For “MNDVYAEAKLNKPDFHTAYTLKKDDGGAIALGEGSTGTVTEVTDPEAIATTVVEWTVTPAEALALVKKSKTEMFATVTYESVDGTRGDITITMKASIAMPSGVIKNDQKITEAWSPDKSYVKADVKEPVTVAVTDFKLDLFDVFEGRKVVVSDVTEANFPSFTKDKLTAKFIFSGAKDVTIGTDKYTFTVTANGTQLNASKNSATATKIATIDADGIITYNKADENAHALLNKSAYNVDPFTVGIEIVVTNECDEILPLTGNKFDVKFLRPINVVDLKSAELQDATTGTAKIDMSKLLGLTDWRGQAFAVAPIDFYTYYGVTGSAISIDKDQIMTTLNASEAAPKLLKDVAPNMSINYTCDLQKIGGDITYGDLVYANGKFTINAPFKLFIPVTVKYTFGEVTSTVTLTITPTHQ”, the “soluble on expression in E. coli” value is “not soluble”.
